T1: MdMYB17 (apple, UniProt D9ZJ54 1-196)
T1 sequence: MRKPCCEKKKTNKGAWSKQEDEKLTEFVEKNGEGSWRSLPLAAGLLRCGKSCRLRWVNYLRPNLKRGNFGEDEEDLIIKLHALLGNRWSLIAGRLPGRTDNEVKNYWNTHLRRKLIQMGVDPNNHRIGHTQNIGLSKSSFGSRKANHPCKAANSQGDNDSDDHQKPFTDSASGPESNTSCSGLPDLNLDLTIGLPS

T2: MdMYB1 (apple, UniProt A0SQ35 1-243)
T2 sequence: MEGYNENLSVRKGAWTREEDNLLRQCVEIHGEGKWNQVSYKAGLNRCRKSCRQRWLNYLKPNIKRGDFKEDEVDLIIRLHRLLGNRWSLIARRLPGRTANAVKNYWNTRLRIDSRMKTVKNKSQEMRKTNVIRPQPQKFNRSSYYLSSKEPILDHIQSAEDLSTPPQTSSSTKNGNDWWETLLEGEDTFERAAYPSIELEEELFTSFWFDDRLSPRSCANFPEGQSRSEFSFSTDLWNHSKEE

T3: MdEIL1 (apple, UniProt D5L144 1-659)
T3 sequence: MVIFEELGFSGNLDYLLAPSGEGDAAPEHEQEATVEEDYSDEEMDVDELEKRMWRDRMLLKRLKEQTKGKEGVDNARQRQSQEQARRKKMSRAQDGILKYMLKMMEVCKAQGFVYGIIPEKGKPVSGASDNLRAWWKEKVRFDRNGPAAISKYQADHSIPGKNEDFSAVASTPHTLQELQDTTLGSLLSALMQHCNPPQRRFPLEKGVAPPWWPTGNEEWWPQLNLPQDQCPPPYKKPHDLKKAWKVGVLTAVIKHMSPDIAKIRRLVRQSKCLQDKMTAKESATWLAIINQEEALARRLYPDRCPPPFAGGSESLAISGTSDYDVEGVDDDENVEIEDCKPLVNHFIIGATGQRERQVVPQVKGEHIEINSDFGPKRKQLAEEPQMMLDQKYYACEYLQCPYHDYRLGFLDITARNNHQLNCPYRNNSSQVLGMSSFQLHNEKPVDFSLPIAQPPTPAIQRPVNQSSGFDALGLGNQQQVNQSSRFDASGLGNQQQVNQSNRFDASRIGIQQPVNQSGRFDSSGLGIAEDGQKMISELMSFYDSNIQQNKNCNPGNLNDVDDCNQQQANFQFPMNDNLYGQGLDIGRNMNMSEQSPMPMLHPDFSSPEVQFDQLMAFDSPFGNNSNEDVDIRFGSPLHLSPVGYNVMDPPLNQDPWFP


Assays:
[1] = target: T1, MdMYB17; test: EMSA; LightShift Chemiluminescent EMSA kit; buffer, salt, pH and temperature not stated; cold competitor 200-300-fold; conditions: protein: recombinant; tags: His (pET-32a fusion); label: biotin; blunt
[2] = target: T1, MdMYB17; test: competition; unlabeled mutant competitor; LightShift Chemiluminescent EMSA kit; buffer, salt, pH and temperature not stated; cold competitor 200-300-fold; conditions: protein: recombinant; tags: His (pET-32a fusion); blunt
[3] = target: T2, MdMYB1; test: EMSA; LightShift Chemiluminescent EMSA kit; buffer, salt, pH and temperature not stated; cold competitor 200-300-fold; conditions: protein: recombinant; tags: His (pET-32a fusion); label: biotin; blunt
[4] = target: T3, MdEIL1; test: as above; conditions: protein: recombinant; tags: His (pET-32a fusion); label: biotin; blunt

| Binder | binding result [1] | binding result [2] | further results |
| --- | --- | --- | --- |
| MdMYB1 promoter MBS probe (dsDNA) DNA 1: AGACTGGTAGCTATTAACAACTGTTGGAATGTTTTAAACT DNA 2: AGTTTAAAACATTCCAACAGTTGTTAATAGCTACCAGTCT | binds |  |  |
| MdMYB1 promoter MBS mutated (dsDNA) DNA 1: AGACTGGTAGCTATTAACGACTATTGGAATGTTTTAAACT DNA 2: AGTTTAAAACATTCCAATAGTCGTTAATAGCTACCAGTCT |  | no binding |  |
| MdMYB17 promoter MBS3 probe (dsDNA) DNA 1: AGATGTGTAGTTAAATTACCCAACTGTAAGTCAAGCGGAGTAGTCA DNA 2: TGACTACTCCGCTTGACTTACAGTTGGGTAATTTAACTACACATCT |  |  | binding result [3]: binds |
| MdDFR promoter MBS probe (dsDNA) DNA 1: AAACTCCCTAAATAAACCAGTTGTACTGGTGGATAGGCCT DNA 2: AGGCCTATCCACCAGTACAACTGGTTTATTTAGGGAGTTT | binds |  |  |
| MdDFR promoter MBS mutated (dsDNA) DNA 1: AAACTCCCTAAATAAACCGGTCGTACTGGTGGATAGGCCT DNA 2: AGGCCTATCCACCAGTACGACCGGTTTATTTAGGGAGTTT |  | no binding |  |
| MdUFGT promoter MBS probe (dsDNA) DNA 1: GTCAAGTATGGTACAAACAACTGCAATAAAATATTGCCAC DNA 2: GTGGCAATATTTTATTGCAGTTGTTTGTACCATACTTGAC | binds |  |  |
| MdUFGT promoter MBS mutated (dsDNA) DNA 1: GTCAAGTATGGTACAAACGACTACAATAAAATATTGCCAC DNA 2: GTGGCAATATTTTATTGTAGTCGTTTGTACCATACTTGAC |  | no binding |  |
| MdEIL1 promoter MRE2 probe (dsDNA) DNA 1: ATTGTTCTGTTTATTGTTTAGGTTAATCTGTTCTTATCTGC DNA 2: GCAGATAAGAACAGATTAACCTAAACAATAAACAGAACAAT | binds |  |  |
| MdMYB17 promoter ATGTA1 probe (dsDNA) DNA 1: TCAAATTAATTATAAATTAAATGTAACCATGACAAGGAAAGTGTC DNA 2: GACACTTTCCTTGTCATGGTTACATTTAATTTATAATTAATTTGA |  |  | binding result [4]: binds |

— article PMC9039505, “Ethylene precisely regulates anthocyanin synthesis in apple via a module comprising MdEIL1, MdMYB1, and MdMYB17”
